Residue numbers refer to the chain shown, from its start. Names and notes keep the numbering of the source.
T1: human B7-H3 expressed on the surface of human cancer cell lines (human, UniProt Q5ZPR3 29-534)
T1 construct: whole, on cells; also called cell surface expression B7-H3
T1 sequence (looked up): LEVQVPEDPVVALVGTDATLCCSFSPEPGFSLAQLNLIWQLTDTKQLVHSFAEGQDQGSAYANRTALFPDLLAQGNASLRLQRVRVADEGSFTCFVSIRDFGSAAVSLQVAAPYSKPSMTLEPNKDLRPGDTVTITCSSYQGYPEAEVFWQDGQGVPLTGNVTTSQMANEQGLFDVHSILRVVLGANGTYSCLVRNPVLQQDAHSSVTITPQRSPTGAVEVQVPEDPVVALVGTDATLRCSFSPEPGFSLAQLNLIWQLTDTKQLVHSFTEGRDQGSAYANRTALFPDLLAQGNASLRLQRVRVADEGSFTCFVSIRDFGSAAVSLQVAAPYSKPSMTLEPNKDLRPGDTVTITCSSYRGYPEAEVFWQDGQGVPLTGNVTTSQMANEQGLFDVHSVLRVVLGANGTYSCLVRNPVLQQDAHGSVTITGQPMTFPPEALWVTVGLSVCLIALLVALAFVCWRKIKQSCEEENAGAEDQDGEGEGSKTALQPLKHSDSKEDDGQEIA

B1: H12 (antibody, V domains shown)
VH: EVQLVESGGGLVQPGGSLRLSCAASGFTFSSYDMSWVRQAPGKSLEWVATISDAGGYIYYSDSVKGRFTISRDNAKNSLYLQMNSLRDEDTAVYICAREFGKRYALDYWGQGTTVTVSS
VL: DIQMTQSPSSLSASVGDRVTITCKASQDVTPAVAWYQQKPGKAPKLLIYSTSSRYTGVPSRFSGSGSGTDFTFTISSLQPEDIATYYCQQHYTTPLTFGQGTKLEIK
notes: Humanized anti-PD-L1 antibody; also called WT (H12); WT
B2: B6 (anti-PD-L1) (antibody, V domains shown)
VH: B1 VH with S61R, F100L, G101P, K102W
VL: B1 VL
notes: Engineered anti-PD-L1 clone
B3: B6xC4I(2+2) (bispecific antibody, human IgG1, kappa, N297A)
chain 1: not shown
chain 2: DIQMTQSPSSLSASVGDRVTITCKASQDVTPAVAWYQQKPGKAPKLLIYSTSSRYTGVPSRFSGSGSGTDFTFTISSLQPEDIATYYCQQHYTTPLTFGQGTKLEIKRTVAAPSVFIFPPSDEQLKSGTASVVCLLNNFYPREAKVQWKVDNALQSGNSQESVTEQDSKDSTYSLSSTLTLSKADYEKHKVYACEVTHQGLSSPVTKSFNRGEC
notes: not the 1+1 format B6xC4I; also called ABLPNB.04; B6xC4I (2+2 format)
B4: B6xB5(2+2) (bispecific antibody, human IgG1, kappa, N297A)
chain 1: not shown
chain 2: B3 chain 2
notes: also called ABLPNB.03; B6xB5 (2+2 format)
B5: ABLPNB.09: bispecific antibody comprising the anti-PD-L1 B6 clone in (HC + LC) form and the anti-B7-H3 C4I clone in scFab-Fc form (bispecific antibody, human IgG1, kappa, lambda)
heavy: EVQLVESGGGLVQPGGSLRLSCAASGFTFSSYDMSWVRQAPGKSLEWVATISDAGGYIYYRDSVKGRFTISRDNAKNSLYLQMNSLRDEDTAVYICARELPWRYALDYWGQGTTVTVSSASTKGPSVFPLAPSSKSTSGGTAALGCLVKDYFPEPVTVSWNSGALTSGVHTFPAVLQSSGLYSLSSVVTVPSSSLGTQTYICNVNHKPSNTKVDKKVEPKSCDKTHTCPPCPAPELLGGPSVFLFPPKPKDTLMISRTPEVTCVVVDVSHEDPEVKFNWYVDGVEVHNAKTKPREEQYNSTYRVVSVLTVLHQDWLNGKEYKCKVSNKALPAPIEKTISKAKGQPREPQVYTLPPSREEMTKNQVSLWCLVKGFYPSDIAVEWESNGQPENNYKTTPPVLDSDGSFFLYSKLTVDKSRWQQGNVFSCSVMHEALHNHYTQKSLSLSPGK
light: B3 chain 2
chain: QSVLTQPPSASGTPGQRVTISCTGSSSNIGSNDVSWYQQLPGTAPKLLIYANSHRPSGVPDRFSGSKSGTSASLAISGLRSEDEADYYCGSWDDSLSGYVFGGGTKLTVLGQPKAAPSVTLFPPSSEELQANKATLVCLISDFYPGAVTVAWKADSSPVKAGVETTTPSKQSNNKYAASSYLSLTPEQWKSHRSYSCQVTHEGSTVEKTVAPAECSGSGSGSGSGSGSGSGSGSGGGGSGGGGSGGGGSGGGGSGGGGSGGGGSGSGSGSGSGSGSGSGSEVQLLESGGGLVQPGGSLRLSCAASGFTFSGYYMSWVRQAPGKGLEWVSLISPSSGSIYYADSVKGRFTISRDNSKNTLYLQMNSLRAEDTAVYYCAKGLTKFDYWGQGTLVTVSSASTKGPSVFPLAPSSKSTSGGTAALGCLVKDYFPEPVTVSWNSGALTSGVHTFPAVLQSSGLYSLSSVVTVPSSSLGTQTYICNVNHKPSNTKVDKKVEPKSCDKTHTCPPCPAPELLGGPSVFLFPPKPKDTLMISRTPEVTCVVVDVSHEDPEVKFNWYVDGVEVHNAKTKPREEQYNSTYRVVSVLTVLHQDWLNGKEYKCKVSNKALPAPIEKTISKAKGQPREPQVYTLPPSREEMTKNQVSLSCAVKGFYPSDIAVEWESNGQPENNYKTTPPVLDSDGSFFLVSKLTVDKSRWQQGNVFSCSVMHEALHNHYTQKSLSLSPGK
notes: Human IgG1, knobs-into-hole; also called B6xC4I (1+1 format)

Key:
[1] = biological target: PD-L1 (Biacore, Example 1.6) (UniProt Q9NZQ7 19-238, limits assumed); test: Biacore
[2] = biological target: T2, PD-L1 expressed on RKO cells (human, UniProt Q9NZQ7 19-290); test: FACS on RKO cells (express both B7-H3 and PD-L1), FITC anti-human IgG
T2 construct: whole, on cells; RKO cells carry both PD-L1 and B7-H3; also called PD-L1 expressed on cell surface

[3] = biological target: T2, PD-L1 expressed on RKO cells; test: as above; remark: listed apart in the source
[4] = biological target: T1, human B7-H3 expressed on the surface of …; test: FACS on RKO cells (express both B7-H3 and PD-L1), FITC anti-human IgG; the signal is not split between the two targets
[5] = biological target: T2, PD-L1 expressed on RKO cells; test: as above
[6] = biological target: T1, human B7-H3 expressed on the surface of …; test: FACS on RKO cells
Description: (§1) To evaluate the antigen binding property, 1+1 format bispecific antibodies were analyzed for its binding to mammalian expressed both B7-H3 and PD-L1 by FACS as compared to monospecific antibodies. Briefly, RKO cells (human colon carcinoma cell line) were incubated with antibodies. After wash by FACS buffer (1% BSA in PBS), the FITC-anti-human IgG antibody was added to each well and incubated at 4° C. for 1 hour. The MFI of FITC was evaluated by FACS Caliber. The results are described in FIG. 18.

[7] = biological target: T2, PD-L1 expressed on RKO cells; test: FACS on RKO cells
Description: as §1

T2 sequence (Q9NZQ7 19-290): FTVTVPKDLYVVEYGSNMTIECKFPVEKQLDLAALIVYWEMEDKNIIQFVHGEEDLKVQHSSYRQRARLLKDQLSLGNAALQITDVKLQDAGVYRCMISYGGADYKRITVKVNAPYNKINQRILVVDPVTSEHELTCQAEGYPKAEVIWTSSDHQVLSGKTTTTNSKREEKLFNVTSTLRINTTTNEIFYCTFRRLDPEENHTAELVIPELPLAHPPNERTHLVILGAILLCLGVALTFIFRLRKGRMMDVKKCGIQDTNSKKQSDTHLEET
Chain of PD-L1 (Biacore, Example 1.6) (Q9NZQ7 19-238 limits assumed): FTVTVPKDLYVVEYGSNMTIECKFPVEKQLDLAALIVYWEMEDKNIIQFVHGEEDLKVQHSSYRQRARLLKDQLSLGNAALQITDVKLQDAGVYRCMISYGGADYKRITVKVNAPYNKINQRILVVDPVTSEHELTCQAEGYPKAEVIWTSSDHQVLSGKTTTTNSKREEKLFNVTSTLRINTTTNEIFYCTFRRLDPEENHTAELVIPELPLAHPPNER

Binder	Kd [1] [nM]	koff [1] [s⁻¹]	kon [1] [M⁻¹ s⁻¹]	EC50 (read off the curve) [4] [nM]	EC50 (read off the curve) [5] [nM]	further results
B1	6.12	0.000436	71200			
B2	4.25	0.000418	98300			EC50 (read off the curve) [2]: ~1 nM; EC50 (read off the curve) [3]: ~0.2 nM
B3				~1	~1	
B4				~1	~1	
B5						binding result [6]: binds; binding result [7]: binds

From patent US20230192861A1 (ABL BIO, published 2023)
